# Test results taken from a protein production outcome set (Wang et al. 2014).
# Test: label from the status in PepcDB records
row,Sequence,protein production
1,MNCIIAQSGGPTSVINASVYGLVKANKKLNLYENVYGGLNGIEGILNKKIINLSDLDELQLERFKNSPASGLGSCRYKLKPLSESEDEYLKLLDILNSLNIKAFFYVGGNDSMDTTAKLNAFAKAKNIDIKFFGIPKTIDNDLMHTDHTPGFGSAAKFISTAVLETYLDSKVYTNNGIFIIETMGRDTGWLAASGALATINGNKCADLVYLPERAFSVQSFLTDVARIFKEKKHVYIVASEGLKDENGKFLTETAPNDDSFGHAQLGGVGAYLKNLIIQASITHRVKSLELNTLQRCSMHASSKIDVNEAVMVGQAALEASINSEGGYMVAIRRDSSFPYKSSTFLIEADKIANNIKYFPSEWINEEGNNITEEGLLYLKPLISDFEDRDSLPLYHSFVL,failed
2,MNCKFEGSKVFFTSDTHFYHGNIIRFCNRPFKDVGMMNETIISNWNNTVGLDDIVFHLGDFCLGGSAEWTKILDRLNGKIYLILGNHDLKNLRQGYVDRFEHLAMQMHIEVNKQKIYLNHYPFLCFDGGYKDVWQLFGHVHTRNNNTGIDATRLQHLYPTQYDVGVDNNNFMPVSFAQVKTIIEKQIKQSKMEELEHHHHHH,not failed
3,MNDADSLQDYQRVRQQAIRSLFEIVEGSSEGTVIVDREARIVWINQRYAQRFGLADPAQAIGRPCESVIPGSLLREVVGSGKPILLDMMDSAKDPLVVMRLPIHDDAGEVIGAIGFALLDELRSLSPLVTRYLSMQRELASTRSQLQARQAKYSFSHFVGTSPVSLEVKRRARRGAASEAPVLLLGETGTGKELLAHAIHSASPRAHKAFVSVNAAAIPESLLEAEFFGTAPGAFTGAERKGRPGKLQVAQGGTLFLDEIGDMPLALQGKLLRVLQEKEFEAVGSNEVIRSDIRLVAATSIDLQQAMREGRFRADLYYRLNVLPIEIPPLRQRLDDLPALCESILDSLDHGRLHELGGDALALLARHAWPGNVRELRNVLERALLLADQRLLDAAALGAALGPLQPLPELPRAADDRPVGDFQQAREAFERDLIGRALAQSAGNVVEAAKRLGLGRSTLYKKIVALGMRLDSGTRLEIETN,failed
4,MNDFKGWETRSYLFLALMVGVQLVAFAINPSNWITLVGGLAGIICVNLIAQGKVSNYIFGLISAVIIGYFGLVTRVYAEVLLQSFYIIMDITGLYAWLRASEDGSGQVTEVKVLKGIQWLYAFFTWLLIGVAAYILLGFVNDAQQTLDAITFSVSATGMLLMIKRYQSQFVFWLLGNIFSILLWFRAGTHAGGDYAIFVMYCMYTFNSIFGMFNWLKIKNKMEKNR,failed
5,MNDHTAAIAAHFDQLAPNLDRWRRRNRTYYRDLEKLHRFWIPTGSRVLQVGSGLGDLLATVEPSFGIGIDVSPQAVAIAQQRHPQLQFHCLAAEELTPEAIGNPEPFDAIILTGVLSYLTDIQVVLEQLQAFCHPRTRLILGFHNFLWQPLLTAAEKVGQRSPQPPESWLGMQDVLNLLTLTGYEPIKQGLEHHHHHH,not failed
6,MNDNYEVFAIKYATYQQRRRNENFLPADEHDAGLMPLDYYVWLLKSPARTILVDTGFNPPEAAARNREQSRCPIEALRLLDVAPDDIDDVIITHLHYDHAGNLEKIPRARFHIQDKEVEFATGRCMCHAPLRFAYSPADVSNFIHKLYAGRVVFHDGAGVVAPGVEVLHVGGHTKGLQAVRVMTQRGWVVLASDASHFYENLEAARPFPLVADVAEMLDGFERLVRAAGSPSHVVPGHDPAVMTRYPTHPRDPQGIALLHLPTLA,failed
7,MNDPVDDDAEPTGNHADGVTVADLIAKVAGSDGATPRRSRRRRAAEPDPEPEFEAQAEPAPKPTPEPEILPVAPEPPASADPTEVLQAIRYDEYPGDHAGEYPGDHPDAAYAGAADPNLDAIFEPAFAPMPFAGVTAAHPDLDSCDTEIIPAVPAADEHADLPDTHRDSWRRRTRPQHAGTDDFDEPHRRHPNRKAMIVGRAAAAMIAALTLVLTGGAWQWQSSKNDSLNKVAALDLGSRDILDPNAQFGDENFLIVGMDSRFGENSQMGAGSTDDADGARSDTIMLVNIPASRERVVAVSFPRDLAITPMKCEPWDPETGTYGPIWDEASGTYGPDEVYTETKLNSAFAFGGPKCLVKVIQKISGLSVNRFMAVDFAGFSKMVDALGGVEVCSTTPLEDYELGTVLANAGRQIVDGHTALNYVRARQVTTEYNGDYGRIKRQQLFLSSLLRSLISKDTFFSLSKLNNVVNMFIADSYVDNIKTKDLVDLGQSVQGVNAGRITFVTIPTTGYADEWGNEQPRMDDVRALFDAIINDDPLPGEKNPDNTPVPGTPESTTNTAQAPQSTSPAPQPAHAAPAPGSAEMVDTVTTEPQQVTVKVSNSTGQSGLAATAAGELEQHGFNVTTPDDYPGPLDATTVFFSPGNEEAAATVASSFSNAAIERVAGLGDVVQVVLGTDFMAVNPPSPSGSAIQVKLVRGTSSTPTQLPEDLSVTNAADATCE,failed
8,MNDSAPRRVRVRAPELIGKGGWLNTGDKQYTLADLRGRIVVLDFWTFCCINCLHVLDELRELEEKHRDTVVIIGVHSPKFVHEAEHQAVVDAVERYGVEHPVLDDPELATWKQYAVRAWPTLVVIDPEGYVVAQHAGEGHAHAIAALVAELEAEHEAKGTLRRGDGPYVAPEPEPTVLRFPGKALLLPSGNFLVSDTTRHQLVELAADGESVVRRIGSGIRGFADGPADAASFSEPQGMTLLDEDVVVVADTVNHALRRLDLATGEVTTLAGTGRQWWQGSPASGPAREVDLSSPWDVAVFGGRVWIAMAGGAPAVDVRPGGGDGRGRGGHDERGAGRRTGLEHHHHHH,not failed
9,MNDTPDDTFVSGYLLYLLAASSEEASAQFHDHIRAQGLRVPEWRVLACLVDNDAMMITRLAKLSLMEQSRMTRIVDQMDARGLVTRVADAKDKRRVRVRLTDDGRALAESLVASARAHETRLLSALADTDAARIKGVLRTLLDVLDRPRESR,not failed
10,MNDVASTKSRVAAVSVVASATMAAAKFAVGIAIGSLALISEALHSSIDLVATIITWFVVRISDRPADDAHHYGHGKIESLSALGVIAMLYVLAGGILVEAYSRLREGAAPPTFSYLAFVILGVDIVVNLWRAWALHRTAVATKSQALAADALHFASDVLGSFAVIAGLALAAAGFHWGDAAAAIGVAVMISLLGLRLGRSTIQTLLDRAPEGVSDKAREAIGAVPGVVGVERLRARMVGPTHFIDALVEVPRTYPIDRIDEIKRKAQESMSEIFGDADLTFTAIPVARDNESVRERIMVIARNSGLAVHHVTVHDLGGHKLIVSIDLEVDGNMPLIEAHDIAHKLEDHIREDFGADVEVDTHIEPLEPELPQGSDAEPARVEEIRLALRRLTHDGAIHDVHSVRVRDTDAGEIVNFHCYADPSMSVISVHDHVDEIERKLRAKFPSVKRVISHAEPPNAD,failed
11,MNEADYLRLLTRQAEQANDFLSNARKWDRERWVCQRFLEALNVPYRQEDFAAPGEQPPDVLFKGAGFEVFFVLDEGRRLNEEWREELTRRRQAVSLRQLIRREERPQRIAAAELQARLAPTLRKKAHNYSERGIDHGELDLLAFVNLKRAVPDFNTPFPPPTEYLRQGWRSLSMVGPTFARVLFAHSGAPEFLRANLGRSILFDAGVGL,not failed
12,MNELDVREFYQKQFELSNYDINTERWLEQLAKEVKEQIGYPFQSMLELGAGNGGFARAMSNLNVKMTTVELVPELVMFAKEHSTNDIEVHCADFYKINFEEKFDIVTYLDGFGVGTDEEQLFLLKRIYNWLKDDGCALIDIYQPLYWEKANGQEMPIYSAMRKYEYDSENARMLDHWWEKDSSNDIVTQSLRCYTIDEISNLCAEARFSIVGIFPGGAYDFEERKYKEQASLNECLSYRIKVKKSKD,failed
13,MNEPQAFAQTDAEWLASINRARDWFQGPLGSLMLAEERRLLCDELTRYFGGYLVHYGPHAELPPSTGQIQRGVRLGPPLPGVDIACEEGAWPLSEHAADVVLLQHGLDFCLSPHRLLREAARTVRPGGHLLLIGINPWSLWGIRHYFAGDALRQARCIPPSRACDWLNLLGFALEKRRFGCYRPPLASAAWQSRLARLERWGDAWQSSGAGFYLLVARKLVVGLRPLRQSKREPRGQLVPMPVAKVSRRDSEI,failed
14,MNEREAKMYELEFPAPDVASDGVDGPTLIIAMQGYADAGLAVEASADHLLSALEHRPVAVFNNDELIDYRSRRPAVTIDHNIVVDANELKLSMDVLRDSNGTPFLLLSGPEPDLRWDAFSQAVADLVRRFGVRRTICIYAAPMTVPHTRPLIVSAHGNSLDLIKHHFSIDSKVTIPGSASLHIERLLNKNNIDVAGYTAHVPHYLSASAYPLATLKLLEAITTSTNLDFPLKTLEADAQKTALQVEEQVAGSQEIESVVKILEQQYDE,failed
